Laboratory results as given in the supplement of paper PMC12042874.
± gives the uncertainty stated by the source.

Experiment: amyloid nucleation score (Sup35N fusion, yeast selection) (log enrichment); library NNK2; higher = more nucleation; inactive = no reads after selection
Procedure, shortened: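 After 24 hours of induction with 100 μM copper sulfate, psi-negative yeast expressing peptides of 20 random codons fused to Sup35N were grown for 7 days at 30°C on medium lacking adenine and uracil. Input and output plasmid inserts were sequenced with Illumina, and sequences with under 100 input reads were discarded. Scores for nucleation are the DiMSum log enrichment of output over input reads, centred on the mode score of non-aggregating sequences.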

Substance	amyloid nucleation score
LANLTSWSILMAKRRLRLTL	1.06 ± 0.33
FNLLARMIVYGIVLSQGKTG	-0.01 ± 0.63
KAYCVHSPVVCISGRVLDSG	-1 ± 1.1
LWRIVSWVECIRCTNP	0.182 ± 0.79
AVISGCFMRGLTTRIRTTLM	-0.073 ± 0.74
LPKGNYSLLAERRSYFGAPI	inactive
LIWGTPYKAW	0.859 ± 0.41
IRAKFI	0.455 ± 0.39
YVMSAVFYSVRFVAIETCKV	0.155 ± 0.57
LTHEKLKGLYCTA	-0.404 ± 0.32
FRYIFRHKHGWTFLHKMVRK	-1.07 ± 1.1
HCMYDWMNRSMGLVFDCLFL	-1.04 ± 1
SFHSCNVS	-0.363 ± 0.74
YYVDVLESISSGMFLYSQLV	-1.95 ± 0.54
LYRNSMRRDR	-0.669 ± 0.35
HPDGYVHRVGSLN	-0.235 ± 1.1
LRFASSNKLVGLD	inactive
PWYLRVSEHHKPWEPENWG	0.552 ± 0.32
YFYLFYCEIRVPTELYLNMP	3.15 ± 0.06
PNNINRFRRSYFY	-1.14 ± 0.49
NAFLPG	4.52 ± 0.12
GVYKVGMVPWFIQFSDVGGR	5.73 ± 0.068
IYTRFQLFR	4.5 ± 0.069
SSCIFYFTIRTNQTYLGI	6.93 ± 0.06
QLRGLVL	0.704 ± 0.44

Substance	amyloid nucleation score
ILLVILLTRIVKRSFFYRGF	inactive
RCPLHPLGGLYTIWSDYLRL	5.82 ± 0.075
ELWLYFFL	-1.07 ± 0.34
QIIVLALMMWMGCRRRMERK	0.414 ± 0.65
ILYGDVWLRFKRFWLSWMPA	-0.055 ± 0.55
RILQSGLGV	0.336 ± 0.56
ASMVSVSVDEFGGFLPSCVS	-0.55 ± 0.46
LYRQTLLSHL	-0.231 ± 0.24
NCTRSSVWNNVVCLESHPSY	-0.035 ± 0.76
WCPLWITCMCLCSGLST	8.742 ± 0.036
SEWEYPNINE	inactive
LSAVVTSFKVTN	0.523 ± 0.64
TRDIELWLGWNRKEVCVLLE	inactive
CFIFKCKKCHLYPMDSVICQ	inactive
LTWRYLLYPLDKFGLETWVL	0.375 ± 0.46
ASQRTVA	1.6 ± 0.36
DRYYVFLILWTRGNTRRPTG	-1.02 ± 0.39
LNMPLLYDYPCYNSWDRYYS	-1.5 ± 0.53
LASFFCFGIINTAC	-0.019 ± 0.17
CVLMTALNLRKRSVGMPFCW	4.67 ± 0.077
RTNFVNGLAVVVRNM	-0.015 ± 0.45
SGNGLLMCPMGSRTGRLFHR	3.54 ± 0.061
LMVESNWHALHLVYVFSYI	0 ± 0.56
GVLDRFPDESNILGVSFSCL	-0.575 ± 0.26
YNYPSVNIRLKIDLAGSLGC	2.65 ± 0.097

Substance	amyloid nucleation score
YSLVRIFDGVWITRDSCNIL	inactive
FCGDILSVT	0.695 ± 0.66
DHSEYSVITKFVLHRSCSQG	8.451 ± 0.067
FAVTGFTWYMKIRCASIPLV	1.65 ± 0.21
VYLFDTYGCSEQFHSVVGYK	-0.916 ± 0.76
EEMMSRYSLTVKML	0.391 ± 0.34
GSYCCLVKFMKFFSSLGHQF	-1.29 ± 1
TIDKISCNIRLRPVYMLLNA	0.342 ± 0.56
LWSFKYFSVCYNLWTIMKGG	inactive
RLFYRYWCL	-0.797 ± 0.35
FPIYFFA	inactive
VVLLAKYQVCIICIKEDLSN	3.78 ± 0.12
MSISSALNKSSHTNSSMWNK	-0.277 ± 0.31
RDNCVWYTGHSLKRMRIAKA	inactive
IYTLL	-0.228 ± 1.1
SMADFIV	-0.767 ± 0.76
PNGFVFSCNRSPMAGMGIDE	-2.14 ± 1.1
AGPSCL	0.537 ± 0.22
YMVLSHVVQPFNHLGISWPC	inactive
WKQLSSWIAIDSLRARKTLS	-0.405 ± 0.42
EACVISNGISILL	-0.54 ± 0.35
GDIRLLSRNVLGYIGALLDL	0.179 ± 0.39
RISECAIYARTGSYMSMRRR	4.08 ± 0.051
SDHTVELFTCKPVMQTRQRT	0.439 ± 0.27
VMPGSLCLVRVFFCIMHVLY	inactive

Substance	amyloid nucleation score
KASLDN	0.018 ± 0.51
CLCCKLVYASNIEIGDYMGF	6.216 ± 0.034
FMITQSFSGT	-1.05 ± 0.41
VAVLKGVGDSPNLAGDSKWD	0.355 ± 0.56
GVNILTLWHWIYFNTTVQNN	-1.19 ± 0.38
HSSSDVCT	5.295 ± 0.049
HSLKNYSGYLLLRTNRCI	0.135 ± 0.65
HNFVFLGKFAYTWKWMKMLS	inactive
FRRNKNN	inactive
TSRYTHNCMPIDCMIMHMGI	1.77 ± 0.14
YSRVILFHNGQMGVVMVPRW	inactive
NVNMVMNNSGKSRLCISENY	-0.19 ± 1
LGRCY	2.72 ± 0.062
LASAFG	-0.792 ± 0.79
KSIAGNC	-1.48 ± 0.78
DSLFIACVSLF	-0.26 ± 0.63
NFVILLCKQN	5.2 ± 0.053
TFAVENHFFMEVLRRKVLIG	inactive
VWCCHLNINVASSLTVSCTR	0.544 ± 0.21
FAGYECIE	-0.881 ± 0.37
SQFLIMTEDR	0.123 ± 0.34
CSFSADCVSRSGGRSFSP	-0.834 ± 0.63
IVHYVFFWMGGILGNHASFP	-1.31 ± 1.1
TNSDSSTQKVIVMSLNAVVP	6.11 ± 0.049
NWVSIEHNYIFVLRYPENAS	8.465 ± 0.042

Substance	amyloid nucleation score
YRVFRFCNMASYLVSICHNG	-1.2 ± 0.64
SSWVFITFSYVMRSQVYHLK	-1.12 ± 0.49
AFNARWTEIDVPWRASPAHV	0.657 ± 0.37
GKINDSGTSYSEKRSGPCRL	-0.874 ± 0.25
CNVAHRLRVRSVAK	0.789 ± 0.47
ECSRSINYLRLVLNLE	0.708 ± 0.34
ISVCITILSYVRNECWFRGD	-0.432 ± 0.24
NKTTFSICDAYDGYREWTDN	-1.17 ± 0.45
YFIGGGLRVMSRWWMCALMD	3.24 ± 0.086
YFLLVVCGWHGFIIESLLRF	inactive
AIAAHFGLMPMCYLCTG	7.25 ± 0.079
VTFNALLGFLASICVITSRI	3.16 ± 0.072
SFIWEYNMYYTGLGRITWMP	0.922 ± 0.34
RCSCPANGFLMGQLAVMS	2.83 ± 0.12
RTERSAFLLAPGNGLSRVRR	0.831 ± 0.4
FMCLHSARNVVMRMDVRVVL	4.93 ± 0.078
DGISFSAKSSSYSDASLRMR	1.62 ± 0.097
TVFWSNLVRVPCRSDTSQYD	0.148 ± 1
SSCRTSSWLALVWFGLGVSG	0.177 ± 0.19
KLYVAIMNSWILGKVGSYNG	6.214 ± 0.034
CSFDVYNSDCTTHDDIINNF	-1.43 ± 1
NISFGSYILLRFLMRVE	0.58 ± 0.6
KYCMRDDSSSLMYLWGCTRG	-0.168 ± 0.29
LLCCIIIIGMVLGLMTDPEW	-0.781 ± 0.76
QDKYTSEECESRFVTYETVV	0.695 ± 0.57

Substance	amyloid nucleation score
IKTVIRCLDLVSFHRYGIGV	-0.401 ± 0.31
YTISSIVVLDMFS	1.41 ± 0.21
FRGVLWLSYLQDYRFDLYCM	-0.773 ± 0.61
NYDSSDLTLFDVSRRPLLER	inactive
ISRGRRYRTPVEILGGHMRH	0.917 ± 0.53
FIYVSWRTWSEIVGMCFGVV	-1 ± 0.45
LLLCYYVFASHKFCCGDGVL	-0.302 ± 0.76
LIARSLGFKNVWS	-0.575 ± 0.54
TSFFPIILKRVPSIKLGTRK	inactive
NITLRSQGIVRGQTFICLFW	-0.354 ± 0.56
NLALFCLVLMMEHQRFPCKA	4.49 ± 0.072
RTQSLASQ	0.144 ± 0.56
SYMDE	4.33 ± 0.06
STTWNSLELTTDNAAGAAII	2.95 ± 0.09
LVCGLDGLVCS	0.111 ± 0.56
VKRVFGYCFIEGLSKDVFHG	6.351 ± 0.043
HTHGGFSHRYGSRWGQYLSW	5.53 ± 0.063
DCARERYKLYNRLHWPSLSS	0.474 ± 0.26
YCNFDRIVYWPLGAAALPFR	0.065 ± 1.1
YIGLSRATWM	-1.75 ± 0.62
IGTADDKVSNRQGEPTEMA	0.681 ± 0.55
WIREY	-0.43 ± 0.32
ISLSIWQPRNSDGWKQEPAP	2.41 ± 0.24
LSLVYRIGLNCNRELSSFDW	2.33 ± 0.1
RVYMCCSSYCGNITKVQ	8.027 ± 0.022

Substance	amyloid nucleation score
FRVIWVVLVACQVSFHVRFV	-0.283 ± 1
GTTDTCSAV	3.2 ± 0.093
FLQRSRNMNCLRGHDFNSNG	0.053 ± 1.1
QGCMVSRNRVQHVVGSGLRW	0.727 ± 0.38
GTTWLTVLALVALSEISCRM	0.384 ± 0.28
IPKKSNLFLQMETMQLLFFD	2.67 ± 0.17
WVYFHSNNSDLLDNEIKLTR	0.652 ± 0.66
VTRRLYSRFIGTKEISAVIC	0.119 ± 0.43
TVMRGVLCMTILYLMWHKGY	4.75 ± 0.08
SLLIFMSFYYWLQVSYRPPR	-1.3 ± 1.1
LCIYFICSGLVRRLEWVG	-0.871 ± 0.3
TPLLSWVTLFCCLGSPCLGT	0.176 ± 0.76
LYIDLHDEALRTTKMDMLNG	inactive
SSGFPE	-0.846 ± 0.42
LAHVVNIVCFNF	7.836 ± 0.026
LSYVDWKCAVFDICW	3.53 ± 0.043
TPWSSVWSVALSGARMGPRS	3.71 ± 0.079
ITSNSVHIGITNYYRRELDQ	5.32 ± 0.056
LRSYLNSHLLLEY	-1.44 ± 0.62
VSTRILSCSNEFCYIIGAMV	2.59 ± 0.15
